# Data taken from the DeepSol protein solubility set.
# Assay: soluble on expression in E. coli; label from the status in PepcDB or PDB records
row,Sequence,soluble on expression in E. coli
1,MKVLITSGGTTEPIDNVRGISNFATGSLGKVTAENFLNAGHEVYLLAGLQAKLPEFTDRLTYIPIEGTHDLYEQMKNLVPDMDVVIHSMAVSDYRPIYMTGLENFTDKFSKEELLNFRPEKVGKISSKSDYQIMLLEKTPKIISYIKEWNPNVLLFGFKLLVGVEKSELLSVAREKLLTNHADFILANDLENIHGNDHQAFLVSKNHEITLKTKAEIADRLLKTSEELKND,soluble
2,MKVLVPVKRLIDYNVKARVKSDGSGVDLANVKMSMNPFDEIAVEEAIRLKEKGQAEEIIAVSIGVKQAAETLRTALAMGADRAILVVAADDVQQDIEPLAVAKILAAVARAEGTELIIAGKQAIDNDMNATGQMLAAILGWAQATFASKVEIEGAKAKVTREVDGGLQTIAVSLPAVVTADLRLNEPRYASLPNIMKAKKKPLDEKTAADYGVDVAPRLEVVSVREPEGRKAGIKVGSVDELVGKLKEAGVI,soluble
3,MKVSLAGQTVDVKKILNEIPKRTVTAALLEGGEIVAVEEADDEHAERKLVRRHDVEGKVVFVTARPCLYCARELAEAGVAGVVYLGRGRGLGPYYLARSGVEVVEVHPDEPLGYDPVDRLDVLLTFGGNPYLTEEDVAARVYCLLTGRGFDADIAPAPENLSGRVEIMVTRGDPDEAVELLKEELPVFRIRRFLISGEFDRDELRERILEDIEPRILDPFAVRARIARAGAFSSSREAEVFIGDVLTSVGREVNLNDPRTVVTVDVLGPRVSVGVEKR,soluble
4,MKVTIIGASGRVGSATALLLAKEPFMKDLVLIGREHSINKLEGLREDIYDALAGTRSDANIYVESDENLRIIDESDVVIITSGVPRKEGMSRMDLAKTNAKIVGKYAKKIAEICDTKIFVITNPVDVMTYKALVDSKFERNQVFGLGTHLDSLRFKVAIAKFFGVHIDEVRTRIIGEHGDSMVPLLSATSIGGIPIQKFERFKELPIDEIIEDVKTKGEQIIRLKGGSEFGPAAAILNVVRCIVNNEKRLLTLSAYVDGEFDGIRDVCIGVPVKIGRDGIEEVVSIELDKDEIIAFRKSAEIIKKYCEEVKNL,soluble
5,MKVTLSVLKADIGSVGGHTLPSRKVLAKVEEVVREEVGRLLLDAYVFHIGDDIVLLLSHTRGVRNQEVHALAWKAFREGTEVAKAEGLYGAGQDLLKDAFTGNLHGLGPQVAEMEFTERPAEPFMVLAADKTEPGAFNLPLYLAFADPMYSSGLLLSPELRPGFRFRIMDLAQTERDSYIELDAPERLYDIATLLRDSHRFAIESIWSRKHGEQAAVVSTTRLRNIAGRYVGKDDPVAIVRTQKIFPATEEFGPVFALAPYVAGDTRGSHHMPLMPVRANTPASTFFCVPMVCGLAFSLREGRLSEPVDLFADPVWEAVRAKVVEKAQEMRRQGFYGPAMLPMEELEYTGIAERLKALEREFS,soluble
6,MKVWRVEKREEGWRLDQFLKEKTPSWISRSMIQKAIKEGKVKVNGQIKKPSYKLKEGEIVEVDLPEKPQEATVQPEEIELKVLYEDRDIIVIDKPGDMIVHPVPSKLSGTLVNALLHHCKDLQGVGGKLRPGIVHRLDKETSGVIVVAKNDFAHQSLSKQFKDRKVKKTYILLVKGKMKNDEGVIDLPLARHPVLRIKMAVVETGKEAITEYRVLKRFDDVATLVLAFPKTGRTHQIRVHMKSLGHPIMGDKIYGKPKEDEIFGIKRQMLHALKLGFFHPRTGEWMEFVSPLPEDFKEAIRRIHEYVRERS,soluble
7,MKVYLHFSPQFFANTYLIGNEITKEAVIIDPAKITEKMIHQIEKNEFNLKAVLLTHDLEHPYETGLNTILKIYSPKVYAGSCFSENVTINTLRGDGCIDVAGYSVRYFAIPAHSSYSYMFQIENMVFTGTSLSAGMIGQTSNMYAERTLRNILKTKLMCFEDNLIIMPFYGPPTSIGVERKYNASFFQDFEKKPFLEHHHHHH,soluble
8,MKYDILIAGVGGQGVVLASRILALSAMKAGFRVSTAETIGMSQREGSVSSHVRIGDEISGSLIPEGKADLLIGLEPAETIRNLPFLKEGGKIIVNSHAIPPASKPPGSPEYNPGALLSYLKTGFPDFFCLDFTRLAEEAGTYRAANVAMIGAAAGMGILPFSKEIVLALMEAEIPEKHRAVNRAAFEEAVKKIK,not soluble
9,MKYFQEADIAVTVCDKTGKIIDMNEQSRQVNLKPGQELIGSNVLDCHPEPARSMLEEMMRQERKHVYTIEKNGRKKLIYQIPWYEKGEYMGFLELSMVIPFEMEHKIRTPKPAND,not soluble
10,MKYLSAKSKLNIDAQDGGFTTTLLSYCLENGILDAVVVVGDKNWKPVAYLATTPTELLKSTKSKYSISPNNKLLEYATENYDKVGLVGLPCHILGGLQFDLTLKVGLFCTKNFYYDTIKSIIKERFGVNIDEVAKMNITKGKFVVETLKKKGFAGTEKVVYEIPIKEIEKLCNLGCRVCTDFSAKYADVSVGSVGSEDGWNTVIVRNKMVEDIINEMAEKGLIEVKETVDIKAIEKLENIKKKNEEINKCSAYFAVCPALFLEHHHHHH,not soluble
11,MKYMIPDEEFIRREGVPITKEEIRAVSIGKLNLNKDDVVVDVGCGSGGMTVEIAKRCKFVYAIDYLDGAIEVTKQNLAKFNIKNCQIIKGRAEDVLDKLEFNKAFIGGTKNIEKIIEILDKKKINHIVANTIVLENAAKIINEFESRGYNVDAVNVFISYAKKIPSGHMFLAKNPITIIKAVR,soluble
12,MKYYHHHHHHDYDIPTTENLYFQGAMAFDGEDEVTGPDADRARAAAVQAVPGGTAGEVETETGEGAAAYGVLVTRPDGTRVEVHLDRDFRVLDTEPADGDGG,soluble
13,MKYYRRALYDKFVHFYLVISDDGSSEAQLRGKMGGLVRKARKKISPDWPKEEQIHQLLQLFYGDWGFHCDPEDYFYARNLYLPYVFEHRQGMPVTLGAMVFYLAEALDLPIYPVNFPTQLILRAEVRDEVAFIDPWDGTYISQEKLQQLYEGAFGFGAKIQPEELDRADLSLLYSRFEQLAKNALIREEHNDMAYHYIKNLMITDAENPYHIRDRGLVLAQMGAYPSALKDLEFFVEHCPKDPTAAFIRTQLLELKGEINKDTFPLHLEHHHHHH,not soluble
14,MLAAKNILNRSSLSSSFRIATRLQSTKVQGSVIGIDLGTTNSAVAIMEGKVPKIIENAEGSRTTPSVVAFTKEGERLVGIPAKRQAVVNPENTLFATKRLIGRRFEDAEVQRDIKQVPYKIVKHSNGDAWVEARGQTYSPAQIGGFVLNKMKETAEAYLGKPVKNAVVTVPAYFNDSQRQATKDAGQIVGLNVLRVVNEPTAAALAYGLEKSDSKVVAVFDLGGGTFDISILDIDNGVFEVKSTNGDTHLGGEDFDIYLLREIVSRFKTETGIDLENDRMAIQRIREAAEKAKIELSSTVSTEINLPFITADASGPKHINMKFSRAQFETLTAPLVKRTVDPVKKALKDAGLSTSDISEVLLVGGMSRMPKVVETVKSLFGKDPSKAVNPDEAVAIGAAVQGAVLSGEVTDVLLLDVTPLSLGIETLGGVFTRLIPRNTTIPTKKSQIFSTAAAGQTSVEIRVFQGERELVRDNKLIGNFTLAGIPPAPKGVPQIEVTFDIDADGIINVSARDKATNKDSSITVAGSSGLSENEIEQMVNDAEKFKSQDEARKQAIETANKADQLANDTENSLKEFEGKVDKAEAQKVRDQITSLKELVARVQGGEEVNAEELKTKTEELQTSSMKLFEQLYKNDSNNNNNNNGNNAESGETKQ,not soluble
15,MLAMVNKVLDWIRSLFWKEEMELTLVGLQNSGKTTFVNVIASGQFTEDMIPTVGFNMRKITKGNVTIKLWDIGGQPRFRSMWERYCRGVNAIVFMVDAADEEKLEASRNELMQLLDKPQLDAIPVLVLGNKKDLPGALDERQLIERMNLSSIQNREICCYSISCKEKENIDITLQWLIDHSKAQR,not soluble
16,MLAPWQPLLEWWFGWGTSAQAVADEKSTLWFGKHYDADAHALFGDLVEHALAGGLEEWQQTPQGWLGLLILLDQLPRMIYRDTPRAFEGDRRAQVVAMQGLQKGWDYQLLPIQRVFVLLVLEHAEVLDWQNLCVERYRMLLDEQPEANRRLFEGFLDYAEQHQRVIARFGRFPHRNLVLERPSTSEEMDFLLEPGSRF,not soluble
17,MLASARRALHPGHPPAIHRAMNSEIDPGRCPLCQQSNRCTLAYPTSATQACWCFTTEIDAAVLERIPAELRRRACLCPRCAQLLPPDADD,not soluble
18,MLATPFWYNAALKVLKPVYRWRIKKRAENEMRYQQECRERFGPFQQPQNRHALWFHAVSVGETNAAQPLIEYYLKLGHPVLVTNTTKTGQARAKSLFLKSPYLELFQAVYLPVDQIFLLKQFFELYQPKLLALVETELWPNLIDQAQHYGVPTFLINARLSEKSAQGYARVSALSNAMLSRLTGLLAQDQSTQQRFIGLGLAREKAQVVGNIKFDIDVPLLFVLEHHHHHH,not soluble
19,MLCQKCQKRVANVQMTQIINNNKTVIYLCEQCAREEGKFNVISPFSINDFFSGFMGFPYMASAPQQNQDVVCETCGMSYEEFKKVGKLGCSNCYKTYGDRLVPLLRRLHGNIQYNGKFPSRAFGSIKISREIEKLKEQLNIAIKNEEYEKAAILRDQIRNLESNQNNM,not soluble
20,MLCVRRRCISAPMTDTTILPRPEVSGDFLVAALYHFARLPRFESLREQLFELCQKNGVKGTLLLAAEGINGTIAGPDAGVQAVLSFLRAQPEFAALEHKESRASHMPFVRLKVKLKKEIVTMGVPDIDPNRIVGTYVDPRDWNALISDPDTIVIDTRNDYETAIGVFKGAVDPQTKTFREFPDWVKNNPGLHNKPKIAMYCTGGIRCEKATAFMKEQGFDEVYHLKGGILKYLEEVPEEESLWEGACFVFDERVSVVHGLAEGDHQLCHACRNPITPDVRLSPKFEEGVSCPSCYDERSEDDRQRFRDRQQQIELAKTRGERHLGRLEHHHHHH,soluble
21,MLDDLPGVADNAKKILFDMKCTTVIDDCNVHLRDVLNLLEDEMHSFRLSSIEANDLDKLYDTFYYYGKKEQLIEFLLDQMTNAINFKQADKDFLIYSWLVEKLTEEQICEMLARINENTQYHWNNNLNSFVDEFVAYYKETNGIDLRINYLGAIYTNLKILSDEYTLSISDYELIFKFFEDIIESHSETIFDFQRKYKKDIETNFGNSLENFPKLNKLLFE,not soluble
22,MLDFAQLPPEVNSALMYAGPGSGPMLAAAAAWEALAAELQTTASTYDALITGLADGPWQGSSAASMVAAATPQVAWLRSTAGQAEQAGSQAVAAASAYEAAFFATVPPPEIAANRALLMALLATNFLGQNTAAIAATEAQYAEMWAQDAAAMYGYAGASAAATQLSPFNPAAQTINPAGLASQAASVGQAVSGAANAQALTDIPKALFGLSGIFTNEPPWLTDLGKALGLTGHTWSSDGSGLIVGGVLGDFVQGVTGSAELDASVAMDTFGKWVSPARLMVTQFKDYFGLAHDLPKWASEGAKAAGEAAKALPAAVPAIPSAGLSGVAGAVGQAASVGGLKVPAVWTATTPAASPAVLAASNGLGAAAAAEGSTHAFGGMPLMGSGAGRAFNNFAAPRYGFKPTVIAQPPAGG,not soluble
23,MLDGLFNWAIARNIMNYNPLPTDKPNRPQGFIPYIYKREELKKIIDKSMTYRSFYTTFYPETIRGIIMLTYLWGLRPSETLGIEMADVHLGTDNYIVIKQMKFYNTRIVTFNDRSLLL,not soluble
24,MLDKVIYSLLRTQDPGLAQELYFRLQAKEQSFAEVAQKYSQGPESQTGGLVGPVEQSSLHPAMVQLLSSCQPGQISPPTRITELEHHHHHH,not soluble
25,MLDVEVEEKAGPKGKHNKDRTVYSYGTEKTSVVLDGRKVKIERPRLCVYKIRKLTLKDSNSFSRRTR,not soluble
26,MLEIEIVYGLPDRQVLKTMQLAEGTTVRAAALQSGLDGIFEDLNLHSAPLGIFGKAVKDDTPLRDGDRIEVYRPLLIDPKEARRKRVQNQEE,not soluble
